The target of test [1] is human PTK7 expressed on cells (cancer cell lines with endogenous PTK7; HEK293T-PTK7 over-expressing cells) (human) (UniProt Q13308). Kind of test: flow cytometry, U2OS cells, 10 µg/mL. (Flow cytometry measures light scatter and fluorescence of single cells or particles in a stream.)
Test [2] has the same target. The experiment in a line: flow cytometry, H661 cells, 10 µg/mL.
Test [3] has the same target. The experiment in a line: flow cytometry, H446 cells, 10 µg/mL.
Test [4] has as its target T1, human PTK7 expressed on cells (cancer cell lines with endogenous PTK7; HEK293T-PTK7 over-expressing cells) (human, UniProt Q13308 31-1070).
T1 sequence: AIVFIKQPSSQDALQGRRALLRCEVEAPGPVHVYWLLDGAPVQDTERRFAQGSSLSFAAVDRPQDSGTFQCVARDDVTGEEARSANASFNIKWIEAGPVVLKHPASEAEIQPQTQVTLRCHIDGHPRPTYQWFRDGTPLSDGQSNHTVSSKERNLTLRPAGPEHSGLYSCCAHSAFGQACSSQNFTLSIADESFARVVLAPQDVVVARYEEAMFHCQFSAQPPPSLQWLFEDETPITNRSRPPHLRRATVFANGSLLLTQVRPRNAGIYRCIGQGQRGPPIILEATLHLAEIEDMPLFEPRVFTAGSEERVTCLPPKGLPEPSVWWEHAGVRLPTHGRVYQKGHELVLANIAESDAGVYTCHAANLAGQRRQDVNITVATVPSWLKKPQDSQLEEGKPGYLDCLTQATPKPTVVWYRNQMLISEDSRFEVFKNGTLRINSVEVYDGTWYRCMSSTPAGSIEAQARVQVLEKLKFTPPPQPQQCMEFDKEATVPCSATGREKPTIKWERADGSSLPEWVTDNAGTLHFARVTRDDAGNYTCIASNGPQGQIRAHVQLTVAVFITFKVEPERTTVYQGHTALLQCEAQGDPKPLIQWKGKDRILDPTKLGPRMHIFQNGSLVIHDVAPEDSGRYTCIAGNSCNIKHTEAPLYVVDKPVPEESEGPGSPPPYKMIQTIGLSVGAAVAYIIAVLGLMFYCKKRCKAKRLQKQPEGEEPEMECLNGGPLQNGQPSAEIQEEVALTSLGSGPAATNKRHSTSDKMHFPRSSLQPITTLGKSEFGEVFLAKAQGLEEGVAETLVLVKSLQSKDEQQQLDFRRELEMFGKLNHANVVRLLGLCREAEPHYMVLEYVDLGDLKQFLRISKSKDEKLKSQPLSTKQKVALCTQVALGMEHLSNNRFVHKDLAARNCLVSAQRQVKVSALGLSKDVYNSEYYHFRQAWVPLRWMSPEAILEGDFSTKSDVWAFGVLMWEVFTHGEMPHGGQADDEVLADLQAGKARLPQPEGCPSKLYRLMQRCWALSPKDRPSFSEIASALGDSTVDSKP
The experiment in a line: cell-based or functional assay.

With Control mAb (Table 7) (antibody), the MFI is 5.3 in test [1], 4.2 in test [2] and 11 in test [3].

B1: hu23 (humanized anti-PTK7 antibody) (antibody, V domains shown)
VH: QITLKESGPTLVKPTQTLTLTCTFSGFSLSTSNMGVGWIRQPPGKALEWLAHIWWDDDKYYSPSLKSRLTITKDTSKNQVVLTMTNMDPVDTATYYCVRSNYGYAWFAYWGQGTLVTVSS
VL: DIQMTQSPSSLSASVGDRVTITCKASQDIYPYLNWFQQKPGKAPKTLIYRTNRLLDGVPSRFSGSGSGTDFTFTISSLQPEDIATYYCLQYDEFPLTFGAGTKLEIKR
With B1, in test [4], the “IC50 of cell viability (MTS), antibody + saporin-conjugated anti-human Fab (Fab-ZAP), DMS114 cells” value was 0.0103 µg/mL and the “IC50 of cell viability (MTS), antibody + saporin-conjugated anti-human Fab (Fab-ZAP), H446 cells” value is 0.0447 µg/mL.

The values above are taken from US20180094075A1 (Pfizer, published 2018).
